1 molecule from article PMC12695944, “Geminin inhibits DNA replication licensing by sterically blocking CDT1-MCM2 interactions” (Nature Communications, 2025) can be followed below.

Residue numbers refer to the chain shown, from its start.

The target of series [1] is T1, CDT1^ΔN (N-terminally truncated CDT1^158-546) (human, UniProt Q9H211 158-546).
T1 chain: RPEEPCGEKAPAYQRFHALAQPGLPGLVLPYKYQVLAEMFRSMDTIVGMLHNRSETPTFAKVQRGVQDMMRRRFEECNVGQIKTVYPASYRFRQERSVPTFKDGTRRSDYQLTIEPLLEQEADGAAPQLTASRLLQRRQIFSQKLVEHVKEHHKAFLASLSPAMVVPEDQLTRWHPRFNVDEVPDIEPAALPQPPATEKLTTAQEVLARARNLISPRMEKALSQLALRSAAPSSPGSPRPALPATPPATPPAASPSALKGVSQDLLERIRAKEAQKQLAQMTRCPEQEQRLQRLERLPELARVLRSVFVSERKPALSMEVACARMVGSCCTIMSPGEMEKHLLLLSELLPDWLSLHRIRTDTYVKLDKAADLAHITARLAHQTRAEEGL
Briefly: SPR. On the technique in general: SPR reads the build-up and loss of mass on a sensor chip optically.

The target of series [2] is T2, CDT1^ΔN (N-terminally truncated CDT1^158-546) (human, UniProt Q9H211 158-546).
T2 construct: CDT1, human, UniProt Q9H211, residues 158-546 (lacks the unstructured N-terminus); Plasmid is in Supplementary Data 1; The His tag serves for capture on the NTA chip in the SPR with peptides; also called standard CDT1 construct; source: E. coli BL21 (DE3), purified (HisTrap Excel, POROS HS, Superdex 200); not shown: His6, N-terminal, kept
T2 sequence (looked up): T1 chain
The series can be described thus: SPR; single-cycle; CDT1^ΔN covalently immobilised on a CM5 chip (EDC/NHS); Gem^FL dimer injected, 7 injections, three-fold steps up to 750 nM; 25 °C; 10 mM HEPES, 500 mM NaCl, 50 µM EDTA, 1 mM TCEP-HCl, 0.05% Tween-20, pH 8.0; 1:1 kinetic model of analyte dimer:CDT1. Conditions: both partners purified.

For series [3], the target named is T3, full-length CDT1 (CDT1^FL), untagged, co-expressed with geminin (CG complex) (human, UniProt Q9H211 1-546).
T3 construct: CDT1, human, UniProt Q9H211, residues 1-546; A separate GST-cleaved CDT1^FL was used only in pre-RC assays; also called CDT1 of the CG complex; source: E. coli BL21 (DE3), co-expressed with His-geminin, co-purified as described for geminin
T3 sequence (looked up): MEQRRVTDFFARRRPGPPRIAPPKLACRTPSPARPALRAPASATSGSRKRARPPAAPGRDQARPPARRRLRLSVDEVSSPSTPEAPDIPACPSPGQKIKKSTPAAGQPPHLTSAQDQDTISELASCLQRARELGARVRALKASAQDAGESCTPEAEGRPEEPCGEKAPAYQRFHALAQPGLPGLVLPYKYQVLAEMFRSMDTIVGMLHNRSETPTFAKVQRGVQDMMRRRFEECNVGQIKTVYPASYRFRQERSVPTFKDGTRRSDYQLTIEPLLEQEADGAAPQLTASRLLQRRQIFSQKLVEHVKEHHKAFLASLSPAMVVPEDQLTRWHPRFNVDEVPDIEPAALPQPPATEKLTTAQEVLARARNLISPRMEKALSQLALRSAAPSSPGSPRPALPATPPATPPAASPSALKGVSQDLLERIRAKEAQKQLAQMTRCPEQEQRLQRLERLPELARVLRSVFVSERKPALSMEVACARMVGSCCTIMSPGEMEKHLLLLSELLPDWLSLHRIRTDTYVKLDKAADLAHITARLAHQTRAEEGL
The series can be described thus: SEC-MALS; co-expressed and co-purified CDT1^FL-geminin (CG) complex at >25× higher concentration than in the pre-RC assay. As to conditions: both partners purified.

Series [4] concerns the target T4, CDT1^4A (CDT1^ΔN with residues 327–330 mutated to alanines) (human, UniProt Q9H211 158-546, residues 327–330 mutated to alanines (CDT1^4A)).
T4 construct: CDT1, human, UniProt Q9H211, residues 158-546 with residues 327-330 all alanine; R330 is; source: E. coli, purified as for the MHD and CHD
T4 sequence (looked up): T1 chain with Q170A, L171A, T172A, R173A
Briefly: mass photometry; room temperature; proteins incubated at CDT1:geminin monomer ratios 0:1, 1:0, 1:2, 1:3, 2:4, 1:4 (1 part = 150 nM) in pre-RC buffer minus Triton X-100, diluted 1:10 in PBS on the instrument; MHD, CHD at 1:2. Conditions: both partners purified.

The target of series [5] is T5, CDT1 middle helical domain (CDT1^MHD, residues 158–396) (human, UniProt Q9H211 158-396).
T5 construct: CDT1, human, UniProt Q9H211, residues 158-396; also called CDT1^158-396; source: E. coli, purified as CDT1^ΔN with the POROS HS step omitted
T5 sequence (looked up): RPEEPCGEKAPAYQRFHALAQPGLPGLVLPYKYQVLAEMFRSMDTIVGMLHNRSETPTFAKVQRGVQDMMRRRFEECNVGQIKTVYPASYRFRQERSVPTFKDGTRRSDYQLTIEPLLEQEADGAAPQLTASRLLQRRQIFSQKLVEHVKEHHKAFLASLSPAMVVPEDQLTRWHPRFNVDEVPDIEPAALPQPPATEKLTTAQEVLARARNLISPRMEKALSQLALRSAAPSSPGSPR
Described as above. Conditions: both partners purified.

Series [6] deals with T6, CDT1^R330A (on a CDT1^ΔN background) (human, UniProt Q9H211 158-546, R330A).
T6 construct: CDT1, human, UniProt Q9H211, residues 158-546 with R330A; source: E. coli, purified as for the MHD and CHD
T6 sequence (looked up): T1 chain with R173A
The description is as above. Conditions: both partners purified.

Series [7] concerns the molecule itself. The series is described as above.
Series [8] concerns the target T2, CDT1^ΔN (N-terminally truncated …). The series is described as above. As to conditions: both partners purified.

B1: full-length geminin (Gem^FL) (natural protein, human, UniProt O75496 1-209, looked up)
chain: MNPSMKQKQEEIKENIKNSSVPRRTLKMIQPSASGSLVGRENELSAGLSKRKHRNDHLTSTTSSPGVIVPESSENKNLGGVTQESFDLMIKENPSSQYWKEVAEKRRKALYEALKENEKLHKEIEQKDNEIARLKKENKELAEVAEHVQYMAELIERLNGEPLDNFESLDNQEFDSEEETVEDSLVEDSEIGTCAEGTVSSSTDAKPCI
notes: geminin, human, UniProt O75496, full length; Dimer in solution; In the co-purification of the CG complex the His tag is still on geminin at the HisTrap step and is cleaved afterwards; Plasmid is in Supplementary Data 1; also called WT geminin; source: E. coli BL21 (DE3), purified (HisTrap Excel, POROS HQ, Superdex 200); also co-expressed with untagged CDT1 in E. coli BL21 (DE3) and purified in …
A word on the koff: it is the first-order rate constant of dissociation. A lower koff goes with a long-lived complex. Usually Kd stands for a measure of binding affinity in units of concentration. The low end stands for a tighter complex, the high end for a looser complex. By stoichiometry N is commonly meant a count of units in the complex or per binding partner. In turn, B1 had a koff in series [1] of 0.0019 s⁻¹. Binding in series [2] was characterised by a dissociation constant (Kd) of 12 nM. Also, the “stoichiometry N” value is 2 geminin monomers per CDT1 in series [3]; 2 geminin monomers per CDT1 in series [4]; 2 geminin monomers per CDT1^MHD in series [5]; 2 geminin monomers per CDT1 in series [6]; 1.91 ± 0.09 in series [7]; 2 geminin monomers per CDT1 in series [8].
